How the values were obtained:
[1] = target: T1, recombinant cMet/HGFR with c-terminal His-tag, Cy5-labeled (UniProt P08581 25-932, limits assumed, Cy5 label (reacted with Cy5 Mono NHS Ester; sites not stated)); assay: competitive TR-FRET (Eu-amivantamab/Cy5-c-MET), EC50 ratio vs Reference Material; Ex. 2 Formulation 1 (10 mM histidine), 1 month at 40 C
T1 construct: Commercial protein; also called Cy5-c-MET; Cy5-labeled c-MET antigen; not shown: C-terminal His-tag
Description: (§1) In this procedure, varying concentrations of unlabeled bispecific EGFR-cMet antibody sample compete with donor fluorophore (Europium (Eu) chelate) labeled bispecific EGFR-cMet antibody for binding to an acceptor fluorophore (Cy5)-labeled c-MET antigen. Excitation of the donor fluorophore results in a transfer of energy to the bound acceptor fluorophore (FRET process). The resultant FRET is detected by emission of light at 665 nm using a microplate reader capable of measuring time-resolved fluorescence. Sample dose response curves are compared to the Reference Material (RM).
(§2) c-MET Binding Materials and Methods. Certified commercial cMet, a recombinant cMet/HGFR with c-terminal His-tag is reacted with certified commercial Cy5 Mono NHS Ester to produce Cy5-labeled c-MET. Validated bispecific EGFR-cMet antibody is reacted with certified commercial Europium (Eu) chelate to produce Eu labeled bispecific EGFR-cMet antibody. […] Fluorescence is then measured by spectrophotometry at 665 nm, plotted against antibody concentration and analyzed by a four-parameter logistic model. The antibody concentration required to obtain half of the maximum fluorescence response (EC50) is determined for RM, assay control and samples. The potencies of assay control and samples are calculated based on the ratio of the sample (or control) and RM EC50 values and reported as a percentage activity relative to the RM.

[2] = target: T2, recombinant human EGFR/ErbB1/HER1 with C-terminal His tag, Cy5-labeled (human, UniProt P00533 25-645, Cy5 label (reacted with Cy5 Mono NHS Ester; sites not stated)); assay: competitive TR-FRET (Eu-amivantamab/Cy5-EGFR), EC50 ratio vs Reference Material; Ex. 3 acetate formulation, 6 months at 25 C, untreated control
T2 construct: Commercial protein; also called Cy5-EGFR; Cy5-labeled EGFR antigen; not shown: C-terminal His tag
Description: (§3) In this procedure, varying concentrations of unlabeled bispecific EGFR-cMet antibody sample compete with donor fluorophore (Europium (Eu) chelate) labeled bispecific EGFR-cMet antibody for binding to an acceptor fluorophore (Cy5)-labeled EGFR antigen. Excitation of the donor fluorophore results in a transfer of energy to the bound acceptor fluorophore (FRET process). The resultant FRET is detected by emission of light at 665 nm using a microplate reader capable of measuring time-resolved fluorescence. Sample dose response curves are compared to the RM.
as §2, with “EGFR” for “c-MET”, “EGFR,” for “cMet,”, “human EGFR/ErbB1/HER1” for “cMet/HGFR”, “C-terminal His tag” for “c-terminal His-tag”, “EGFR.” for “c-MET.”, “Eu-labeled” for “Eu labeled”

[3] = target: T1, recombinant cMet/HGFR with c-terminal …; assay: competitive TR-FRET (Eu-amivantamab/Cy5-c-MET), EC50 ratio vs Reference Material; Ex. 3 acetate formulation with PS80, T0
Description: as §1, §2

[4] = target: T1, recombinant cMet/HGFR with c-terminal …; assay: competitive TR-FRET (Eu-amivantamab/Cy5-c-MET), EC50 ratio vs Reference Material; Ex. 11 drug product, 6 months at 5 C
Description: as §1, §2

[5] = target: T2, recombinant human EGFR/ErbB1/HER1 with …; assay: competitive TR-FRET (Eu-amivantamab/Cy5-EGFR), EC50 ratio vs Reference Material; Ex. 2 Formulation 1 (10 mM histidine), 3 months at 25 C
Description: as §3
as §2, with “EGFR” for “c-MET”, “EGFR,” for “cMet,”, “human EGFR/ErbB1/HER1” for “cMet/HGFR”, “C-terminal His tag” for “c-terminal His-tag”, “EGFR.” for “c-MET.”, “Eu-labeled” for “Eu labeled”

[6] = target: T2, recombinant human EGFR/ErbB1/HER1 with …; assay: competitive TR-FRET (Eu-amivantamab/Cy5-EGFR), EC50 ratio vs Reference Material; Ex. 2 Formulation 2 (50 mM histidine), 3 months at 25 C
Description: as §3
as §2, with “EGFR” for “c-MET”, “EGFR,” for “cMet,”, “human EGFR/ErbB1/HER1” for “cMet/HGFR”, “C-terminal His tag” for “c-terminal His-tag”, “EGFR.” for “c-MET.”, “Eu-labeled” for “Eu labeled”

[7] = target: T2, recombinant human EGFR/ErbB1/HER1 with …; assay: competitive TR-FRET (Eu-amivantamab/Cy5-EGFR), EC50 ratio vs Reference Material; Ex. 2 Formulation 1 (10 mM histidine), 3 months at 5 C
Description: as §3
as §2, with “EGFR” for “c-MET”, “EGFR,” for “cMet,”, “human EGFR/ErbB1/HER1” for “cMet/HGFR”, “C-terminal His tag” for “c-terminal His-tag”, “EGFR.” for “c-MET.”, “Eu-labeled” for “Eu labeled”

[8] = target: T1, recombinant cMet/HGFR with c-terminal …; assay: competitive TR-FRET (Eu-amivantamab/Cy5-c-MET), EC50 ratio vs Reference Material; Ex. 2 Formulation 3 (acetate), T0, 40 C table
Description: as §1, §2

B1: amivantamab (bispecific antibody, human IgG1, kappa)
heavy 1: not shown
light 1: not shown
heavy 2: not shown
light 2: DIQMTQSPSSVSASVGDRVTITCRASQGISNWLAWFQHKPGKAPKLLIYAASSLLSGVPSRFSGSGSGTDFTLTISSLQPEDFATYYCQQANSFPITFGQGTRLEIKRTVAAPSVFIFPPSDEQLKSGTASVVCLLNNFYPREAKVQWKVDNALQSGNSQESVTEQDSKDSTYSLSSTLTLSKADYEKHKVYACEVTHQGLSSPVTKSFNRGEC
notes: The samples tested were high concentration (160 mg/mL) formulations, fresh or stored or stressed; also called JNJ-61186372; bispecific EGFR-cMet antibody
Q: For B1, which “cMET Binding % activity relative to RM” value [1] is on record?
A: Its value is 96%.

Q: What about the “EGFR Binding % activity relative to RM” value [2] of the same binder?
A: The value was 83%.

Q: What about the “cMET Binding % activity relative to RM” value [3] of the same binder?
A: Its value is 94%.

Q: What about the “cMET Binding activity relative to Reference Material (%)” value [4] of the same binder?
A: Its value is 86%.

Q: What about the “EGFR Binding % activity relative to RM” value [5] of the same binder?
A: The value was 100%.

Q: And the “EGFR Binding % activity relative to RM” value [6]?
A: The value was 77%.

Q: And the “EGFR Binding % activity relative to RM” value [7]?
A: Its value is 102%.

Q: And the “cMET Binding % activity relative to RM” value [8]?
A: Its value is 94%.
